# T1: VEGF (human, UniProt P15692)
# T1 chain: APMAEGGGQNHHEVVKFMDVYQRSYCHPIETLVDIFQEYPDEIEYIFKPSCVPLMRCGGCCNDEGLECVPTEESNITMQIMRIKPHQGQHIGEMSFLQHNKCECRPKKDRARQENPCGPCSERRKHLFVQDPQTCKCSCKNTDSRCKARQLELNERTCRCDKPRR
# B1: DVD451 DLL4 arm (antibody, V domains shown)
# VH: QVQLVQSGAEVKKPGASVKISCKASGYSFTAYYIHWVKQAPGQGLEWIGYISSYNGATNYNQKFKGRVTFTTDTSTSTAYMELRSLRSDDTAVYYCARDYDYDVGMDYWGQGTLVTVSS
# VL: DIVMTQSPDSLAVSLGERATISCRASESVDNYGISFMKWFQQKPGQPPKLLIYAASNQGSGVPDRFSGSGSGTDFTLTISSLQAEDVAVYYCQQSKEVPWTFGGGTKVEIKR
# modifications: DVD-Ig outer
# B2: DVD453 DLL4 arm (antibody, V domains shown)
# VH: B1 VH
# VL: B1 VL
# modifications: DVD-Ig outer
# B3: DVD444 DLL4 arm (antibody, V domains shown)
# VH: B1 VH
# VL: B1 VL
# modifications: DVD-Ig inner
# B4: DVD455 DLL4 arm (antibody, V domains shown)
# VH: B1 VH
# VL: B1 VL
# modifications: DVD-Ig outer
# B5: DVD448 DLL4 arm (antibody, V domains shown)
# VH: B1 VH
# VL: B1 VL
# modifications: DVD-Ig inner
# B6: DVD457 DLL4 arm (antibody, V domains shown)
# VH: B1 VH
# VL: B1 VL
# modifications: DVD-Ig outer
# B7: DVD446 DLL4 arm (antibody, V domains shown)
# VH: B1 VH
# VL: B1 VL
# modifications: DVD-Ig inner
# B8: DVD459 DLL4 arm (antibody, V domains shown)
# VH: B1 VH
# VL: B1 VL
# modifications: DVD-Ig outer
# B9: DVD463 DLL4 arm (antibody, V domains shown)
# VH: B1 VH
# VL: B1 VL
# modifications: DVD-Ig outer
# B10: DVD473 DLL4 arm (antibody)
# chain 1: EVQLVESGGGLVQPGGSLRLSCAASGFTFTDNWISWVRQAPGKGLEWVGYISPNSGFTYYADSVKGRFTISADTSKNTAYLQMNSLRAEDTAVYYCARDNFGGYFDYWGQGTLVTVSS
# chain 2: DIQMTQSPSSLSASVGDRVTITCRASQDVSTAVAWYQQKPGKAPKLLIYSASFLYSGVPSRFSGSGSGTDFTLTISSLQPEDFATTYYCQQSYTGTVTFGQGTKVEIKR
# modifications: DVD-Ig outer
# B11: DVD475 DLL4 arm (antibody)
# chain 1: B10 chain 1
# chain 2: B10 chain 2
# modifications: DVD-Ig outer
# B12: DVD472 DLL4 arm (antibody)
# chain 1: B10 chain 1
# chain 2: B10 chain 2
# modifications: DVD-Ig inner
# B13: DVD482 DLL4 arm (antibody)
# chain 1: B10 chain 1
# chain 2: B10 chain 2
# modifications: DVD-Ig inner
# B14: DVD474 DLL4 arm (antibody)
# chain 1: B10 chain 1
# chain 2: B10 chain 2
# modifications: DVD-Ig inner
# B15: DVD490 DLL4 arm (antibody, V domains shown)
# VH: EVQLQQSGPELVKPGASVKMSCKASGYTFTSYVINWVKQKPGQGLEWIGLINPYNDGTKYNEKFKVKATLTSDKSSSTAYMELSSLTSEDSAVYYCASYYYGSRYYFDYWGQGTTLTVSS
# VL: DIQMTQSSSYLSVSLGGRVTITCKASDHINNWLAWYQQKPGNAPRLLISGATSLETGVPSRFSGSGSGKDYTLSITSLQTEDVATYYCQQYWSIPLTFGAGTKLELKR
# modifications: DVD-Ig inner
# B16: DVD508 DLL4 arm (antibody, V domains shown)
# VH: B15 VH
# VL: B15 VL
# modifications: DVD-Ig inner
# B17: DVD507 DLL4 arm (antibody, V domains shown)
# VH: B15 VH
# VL: B15 VL
# modifications: DVD-Ig outer
# B18: DVD500 DLL4 arm (antibody, V domains shown)
# VH: B15 VH
# VL: B15 VL
# modifications: DVD-Ig inner
# B19: DVD495 DLL4 arm (antibody, V domains shown)
# VH: B15 VH
# VL: B15 VL
# modifications: DVD-Ig outer
# B20: DVD534 DLL4 arm (antibody, V domains shown)
# VH: EVQLQQSGPELEKPGASVKISCKASGYSFTGYNMNWVKQSNGKSLEWIGNIDPYFGGTNYNQKFKGKATLTVDKSSSTAYMQLKSLTSEDSAVYYCARNYDYDGGCFDYWGQGTTLTVSS
# VL: QAVVTQESALTTSPGETVTLTCRSSTGAVTTSNYANWVQEKPDHLFTGLIGGTNNRAPGVPARFSGSLIGDKAALTITGAQTEDEAIYFCALWYSNHWVFGGGTKLTVLG
# modifications: DVD-Ig inner
# B21: DVD520 DLL4 arm (antibody, V domains shown)
# VH: B20 VH
# VL: B20 VL
# modifications: DVD-Ig inner
# B22: DVD522 DLL4 arm (antibody, V domains shown)
# VH: B20 VH
# VL: B20 VL
# modifications: DVD-Ig inner
# B23: DVD513 DLL4 arm (antibody, V domains shown)
# VH: B20 VH
# VL: B20 VL
# modifications: DVD-Ig outer
# B24: DVD527 DLL4 arm (antibody, V domains shown)
# VH: B20 VH
# VL: B20 VL
# modifications: DVD-Ig outer
# B25: DVD463 VEGF arm (antibody, V domains shown)
# VH: EVQLVESGGGLVQPGGSLRLSCAASGFTINASWIHWVRQAPGKGLEWVGAIYPYSGYTNYADSVKGRFTISADTSKNTAYLQMNSLRAEDTAVYYCARWGHSTSPWAMDYWGQGTLVTVSS
# VL: DIQMTQSPSSLSASVGDRVTITCRASQVIRRSLAWYQQKPGKAPKLLIYAASNLASGVPSRFSGSGSGTDFTLTISSLQPEDFATYYCQQSNTSPLTFGQGTKVEIKR
# B26: DVD457 VEGF arm (antibody, V domains shown)
# VH: B25 VH
# VL: B25 VL
# Molecular target: DLL4 (human, UniProt Q9NR61)
# Sequence (Q9NR61 27-524): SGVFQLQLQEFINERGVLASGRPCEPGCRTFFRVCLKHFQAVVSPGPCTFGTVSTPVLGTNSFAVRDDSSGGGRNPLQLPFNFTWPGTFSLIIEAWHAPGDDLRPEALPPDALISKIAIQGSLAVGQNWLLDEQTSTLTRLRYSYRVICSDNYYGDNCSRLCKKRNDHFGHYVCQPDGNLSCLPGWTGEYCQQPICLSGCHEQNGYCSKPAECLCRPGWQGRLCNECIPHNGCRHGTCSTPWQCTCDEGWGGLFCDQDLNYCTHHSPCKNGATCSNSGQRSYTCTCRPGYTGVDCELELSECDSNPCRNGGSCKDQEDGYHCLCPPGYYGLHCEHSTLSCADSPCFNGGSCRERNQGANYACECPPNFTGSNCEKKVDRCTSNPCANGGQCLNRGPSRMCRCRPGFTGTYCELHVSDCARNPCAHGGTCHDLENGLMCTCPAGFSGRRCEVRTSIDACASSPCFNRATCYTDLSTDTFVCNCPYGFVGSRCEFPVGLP
# Assay: ELISA
row,EC50 [nM],Binder
1,0.4,B1
2,0.09,B2
3,30.5,B3
4,0.24,B4
5,0.41,B5
6,0.13,B6
7,13.9,B7
8,0.26,B8
9,0.5,B9
10,1.8,B10
11,0.23,B11
12,2.78,B12
13,0.36,B13
14,0.57,B14
15,9.27,B15
16,0.61,B16
17,0.71,B17
18,0.57,B18
19,0.33,B19
20,0.47,B20
21,17.3,B21
22,0.48,B22
23,0.66,B23
24,0.2,B24

# Molecular target: T1, VEGF
# Assay: ELISA
row,EC50 [nM],Binder
1,1730,B25
2,1480,B26

# — patent publication US9029508 (dated 2015)
